Experimental data as given in the supplement of paper PMC11316812.
± gives the standard deviation of the averaged measurements.

How the values were obtained:
MCF7 = assay: percentage of EdU-negative (G0-arrested) nuclei per well, 72 h; higher = more G0 arrest; conditions: reference: sequence is the full UniProt precursor, the tested protein was the secreted form or ectodomain
hTERT-HMEC = assay: as above; conditions: reference: sequence is the full UniProt precursor, the tested protein was the secreted form or ectodomain
[1] = protein concentration 0.0135 µM
[2] = protein concentration 0.0193425 µM
[3] = protein concentration 0.193425 µM
[4] = protein concentration 0.0225 µM
[5] = protein concentration 0.02085 µM
[6] = protein concentration 0.2085 µM
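Further: secreted proteins added to cultured cells, EdU pulse at the end, nuclei found by Hoechst imaging, EdU status from nuclear versus surrounding ring intensity ratio, PBS as neutral control.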

In the case of “MDLRQFLMCLSLCTAFALSKPTEKKDRVHHEPQLSDKVHNDAQSFDYDHDAFLGAEEAKTFDQLTPEESKERLGKIVSKIDGDKDGFVTVDELKDWIKFAQKRWIYEDVERQWKGHDLNEDGLVSWEEYKNATYGYVLDDPDPDDGFNYKQMMVRDERRFKMADKDGDLIATKEEFTAFLHPEEYDYMKDIVVQETMEDIDKNADGFIDLEEYIGDMYSHDGNTDEPEWVKTEREQFVEFRDKNRDGKMDKEETKDWILPSDYDHAEAEARHLVYESDQNKDGKLTKEEIVDKYDLFVGSQATDFGEALVRHDEF”, the “percentage of EdU-negative” value (MCF7; [1]) is reported as 22.72 ± 0.078%, the “percentage of EdU-negative” value (MCF7; protein concentration 0.135 µM) is reported as 23.6 ± 3.3% and the “percentage of EdU-negative” value (hTERT-HMEC; [1]) is reported as 5.58 ± 1.3%. The “percentage of EdU-negative” value (hTERT-HMEC; protein concentration 0.135 µM) was 7.65 ± 0.27%.

With “MDLSAAAALCLWLLSACRPRDGLEAAAVLRAAGAGPVRSPGGGGGGGGGGRTLAQAAGAAAVPAAAVPRARAARRAAGSGFRNGSVVPHHFMMSLYRSLAGRAPAGAAAVSASGHGRADTITGFTDQATQDESAAETGQSFLFDVSSLNDADEVVGAELRVLRRGSPESGPGSWTSPPLLLLSTCPGAARAPRLLYSRAAEPLVGQRWEAFDVADAMRRHRREPRPPRAFCLLLRAVAGPVPSPLALRRLGFGWPGGGGSAAEERAVLVVSSRTQRKESLFREIRAQARALGAALASEPLPDPGTGTASPRAVIGGRRRRRTALAGTRTAQGSGGGAGRGHGRRGRSRCSRKPLHVDFKELGWDDWIIAPLDYEAYHCEGLCDFPLRSHLEPTNHAIIQTLLNSMAPDAAPASCCVPARLSPISILYIDAANNVVYKQYEDMVVEACGCR [Q7Z4P5]” the “percentage of EdU-negative” value (MCF7; [2]) was 26.75 ± 0.031%, the “percentage of EdU-negative” value (MCF7; [3]) was 28.9 ± 2.2% and the “percentage of EdU-negative” value (hTERT-HMEC; [2]) was 5.309 ± 0.0057%. The “percentage of EdU-negative” value (hTERT-HMEC; [3]) was 5.34 ± 1.2%.

In the case of “MDLSLLWVLLPLVTMAWGQYGDYGYPYQQYHDYSDDGWVNLNRQGFSYQCPQGQVIVAVRSIFSKKEGSDRQWNYACMPTPQSLGEPTECWWEEINRAGMEWYQTCSNNGLVAGFQSRYFESVLDREWQFYCCRYSKRCPYSCWLTTEYPGHYGEEMDMISYNYDYYIRGATTTFSAVERDRQWKFIMCRMTEYDCEFANV”, the “percentage of EdU-negative” value (MCF7; [4]) is reported as 25.1 ± 0.98%, the “percentage of EdU-negative” value (MCF7; protein concentration 0.225 µM) is reported as 26.2 ± 0.3% and the “percentage of EdU-negative” value (hTERT-HMEC; [4]) is reported as 5.38 ± 0.62%. For the same sequence, the “percentage of EdU-negative” value (hTERT-HMEC; protein concentration 0.225 µM) was 4.92 ± 0.97%.

For “MDLSRPRWSLWRRVFLMASLLACGICQASGQIFITQTLGIKGYRTVVALDKVPEDVQEYSWYWGANDSAGNMIISHKPPSAQQPGPMYTGRERVNREGSLLIRPTALNDTGNYTVRVVAGNETQRATGWLEVLELGSNLGISVNASSLVENMDSVAADCLTNVTNITWYVNDVPTSSSDRMTISPDGKTLVILRVSRYDRTIQCMIESFPEIFQRSERISLTVAYGPDYVLLRSNPDDFNGIVTAEIGSQVEMECICYSFLDLKYHWIHNGSLLNFSDAKMNLSSLAWEQMGRYRCTVENPVTQLIMYMDVRIQAPHEDLTCCPQRFLHLRIHGDVPHHADSAGWRLHLWSPDPCSDQPLLNQDKSGSMSVHPRPEDKTRRASR [A8MTB9]”, the “percentage of EdU-negative” value (MCF7; [4]) was 28.6 ± 0.05%, the “percentage of EdU-negative” value (MCF7; protein concentration 0.225 µM) was 27.4 ± 0.32% and the “percentage of EdU-negative” value (hTERT-HMEC; [4]) was 4.89 ± 0.18%. For the same sequence, the “percentage of EdU-negative” value (hTERT-HMEC; protein concentration 0.225 µM) was 4.46 ± 0.032%.

For “MDLVLKRCLLHLAVIGALLAVGATKVPRNQDWLGVSRQLRTKAWNRQLYPEWTEAQRLDCWRGGQVSLKVSNDGPTLIGANASFSIALNFPGSQKVLPDGQVIWVNNTIINGSQVWGGQPVYPQETDDACIFPDGGPCPSGSWSQKRSFVYVWKTWGQYWQVLGGPVSGLSIGTGRAMLGTHTMEVTVYHRRGSRSYVPLAHSSSAFTITDQVPFSVSVSQLRALDGGNKHFLRNQPLTFALQLHDPSGYLAEADLSYTWDFGDSSGTLISRALVVTHTYLEPGPVTAQVVLQAAIPLTSCGSSPVPGTTDGHRPTAEAPNTTAGQVPTTEVVGTTPGQAPTAEPSGTTSVQVPTTEVISTAPVQMPTAESTGMTPEKVPVSEVMGTTLAEMSTPEATGMTPAEVSIVVLSGTTAAQVTTTEWVETTARELPIPEPEGPDASSIMSTESITGSLGPLLDGTATLRLVKRQVPLDCVLYRYGSFSVTLDIVQGIESAEILQAVPSGEGDAFELTVSCQGGLPKEACMEISSPGCQPPAQRLCQPVLPSPACQLVLHQILKGGSGTYCLNVSLADTNSLAVVSTQLIMPGQEAGLGQVPLIVGILLVLMAVVLASLIYRRRLMKQDFSVPQLPHSSSHWLRLPRIFCSCPIGENSPLLSGQQV”, the “percentage of EdU-negative” value (MCF7; [5]) was 25.3 ± 1.8%, the “percentage of EdU-negative” value (MCF7; [6]) was 25.4 ± 2.4% and the “percentage of EdU-negative” value (hTERT-HMEC; [5]) was 4.37 ± 0.18%. The “percentage of EdU-negative” value (hTERT-HMEC; [6]) was 5.18 ± 0.52%.
